Results published in patent US20260097129A1 (KOOKMIN UNIVERSITY INDUSTRY ACADEMY COOPERATION FOUNDATION, published 2026).

Target: GRP94 on human CRC cells (HCT116, LoVo, HT29, HCT8) (human, UniProt P14625 22-803)
Experiment: cell-based or functional assay

GRP94 on human CRC cells (HCT116, LoVo, HT29, HCT8), sequence (P14625 22-803): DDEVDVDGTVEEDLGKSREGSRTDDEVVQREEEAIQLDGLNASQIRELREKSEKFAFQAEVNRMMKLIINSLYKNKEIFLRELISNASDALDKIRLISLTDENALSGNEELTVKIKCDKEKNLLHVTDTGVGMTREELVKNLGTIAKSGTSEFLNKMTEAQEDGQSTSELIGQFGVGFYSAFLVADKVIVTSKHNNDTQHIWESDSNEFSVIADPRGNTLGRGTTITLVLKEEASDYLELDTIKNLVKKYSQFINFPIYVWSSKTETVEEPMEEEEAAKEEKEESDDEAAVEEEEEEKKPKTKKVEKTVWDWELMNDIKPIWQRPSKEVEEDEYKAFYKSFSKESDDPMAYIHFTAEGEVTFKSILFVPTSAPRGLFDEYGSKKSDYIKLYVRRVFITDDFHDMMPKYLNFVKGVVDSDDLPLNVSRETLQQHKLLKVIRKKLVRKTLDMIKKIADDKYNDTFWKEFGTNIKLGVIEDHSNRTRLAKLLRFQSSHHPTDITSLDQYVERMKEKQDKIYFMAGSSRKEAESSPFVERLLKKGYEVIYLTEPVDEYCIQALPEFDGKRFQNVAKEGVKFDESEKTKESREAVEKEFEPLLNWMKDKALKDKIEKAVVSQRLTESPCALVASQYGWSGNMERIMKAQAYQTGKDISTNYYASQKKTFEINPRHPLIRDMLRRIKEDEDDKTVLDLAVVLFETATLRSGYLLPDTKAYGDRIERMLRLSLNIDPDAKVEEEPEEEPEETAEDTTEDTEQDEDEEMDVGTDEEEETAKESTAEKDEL

B1: K101.1-DM1 (antibody, V domains shown)
VH: EVQLLESGGGLVQPGGSLRLSCAASGFTFSNYSMSWVRQAPGKGLEWVSGIYYGSGNKYYADSVKGRFTISRDNSKNTLYLQMNSLRAEDTAVYYCAKNLASFDYWGQGTLVTVSS
VL: QSVLTQPPSASGTPGQRVTISCSGSSSNIGSNSVNWYQQLPGTAPKLLIYSNSHRPSGVPDRFSGSKSGTSASLAISGLRSEDEADYYCGTWDSSLSGYVFGGGTKLTVL
modifications: SMCC-DM1 conjugated to lysine residues of the antibody (positions not stated)
**Q.** B1 was tested. Which “IC50 of cell viability (CCK-8), HCT8 cells” value did it give?
**A.** 78.8 nM

**Q.** What about the “IC50 of cell viability (CCK-8), HCT116 cells” value of the same binder?
**A.** 34.9 nM

**Q.** What about the “IC50 of cell viability (CCK-8), HT29 cells” value of the same binder?
**A.** 77.7 nM

**Q.** What about the “IC50 of cell viability (CCK-8), LoVo cells” value of the same binder?
**A.** 52.5 nM

B2: K101.3-DM1 (antibody, V domains shown)
VH: EVQLLESGGGLVQPGGSLRLSCAASGFTFSGYAMSWVRQAPGKGLEWVSAISHGGSSKYYADSVKGRFTISRDNSKNTLYLQMNSLRAEDTAVYYCAKDLLSPLQSIGSYDDAMDVWGQGTLVTVSS
VL: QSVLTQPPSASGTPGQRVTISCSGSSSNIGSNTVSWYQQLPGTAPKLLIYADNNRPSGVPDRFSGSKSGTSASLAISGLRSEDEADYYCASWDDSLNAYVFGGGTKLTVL
modifications: SMCC-DM1 conjugated to lysine residues of the antibody (positions not stated)
**Q.** Which results are given for B2?
**A.** IC50 of cell viability (CCK-8), HCT8 cells: 44.9 nM; IC50 of cell viability (CCK-8), HCT116 cells: 57.8 nM; IC50 of cell viability (CCK-8), HT29 cells: 48.3 nM; IC50 of cell viability (CCK-8), LoVo cells: 35.5 nM
